Consider ten molecules from patent US20230212587A1, “Mutant Hydroxyphenylpyruvate Dioxygenase Polypeptide, Encoding Gene Thereof and Use Therefor” (Beijing Dabeinong Biotechnology Co., Ltd., priority 2019, published 2023).

The subject of this experiment is Arabidopsis thaliana T1 plants. Kind of experiment: Topramezone tolerance of transgenic Arabidopsis thaliana T1 plants (pesticide damage grade by bleached leaf area, score, resistance evaluation). The experiment is classed as in vivo. In short, it runs like this:
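Herbicide tolerance was judged per plant on a bleaching scale (grade 0 no bleaching to grade 3 fully bleached) 7 DAT. Topramezone doses were 0, 25, 50 and 100 g ai/ha on 18-day-old T1 and wild-type plants.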

The mark [1] stands for this setting: topramezone 25 g ai/ha (1x), HPPD F372G mutants, Table 6.
Setting [2] is: topramezone 100 g ai/ha (4x), HPPD F372G mutants, Table 6.
[3] abbreviates: topramezone 25 g ai/ha (1x), HPPD F372V mutants, Table 7.
Where [4] appears, read: topramezone 100 g ai/ha (4x), HPPD F372V mutants, Table 7.

B1: N3HPPDm-F372G: Burkholderia sp. N3 HPPD mutant F372G, SEQ ID NO: 341 (protein)
chain: MQIPNWENPVGTDGFEFIEYTAPDPKALGQLFERMGFTAIARHRHKDVTVYRQGDINFIINAEPHSFAQRFARLHGPSICAIAFRVQDAAKAYQHALELGAWGFDNKTGPMELNIPAIKGIGDSLIYFVDRWRGKNGAQPGAIGDISIYDVDFEPIAGANPNPAGHGLTYIDHLTHNVHRGRMQEWAEFYERLFNFREVRYFDIEGKVTGVKSKAMTSPCGKIRIPINEEGSDTAGQIQEYLDAYHGEGIQHIALGTNDIYGAVDGLRGKEVKLLDTIDTYYELVDRRVPDHGESLDELKKRKILIDGARDDLLLQIGTENQIGPIFFEIIQRKGNQGFGEGNFKALFESIELDQIRRGVVQDKA
modifications: N3HPPDm-F372G Amino Acid Sequence
As to B1, the Resistance evaluation entry is, setting by setting: under setting [1], “Highly resistant”; under setting [2], “Highly resistant”.

B2: N4HPPDm-F372G: Burkholderia sp. N4 HPPD mutant F372G, SEQ ID NO: 343 (protein)
chain: MQIPNWENPVGTDGFEFIEYTAPDPKALGQLFERMGFTAIARHRHKDVTVYRQGDINFIINAEPDSFAQRFARLHGPSICAIAFRVQDAAKAYQHALELGAWGFDNKTGPMELNIPAIKGIGDSLIYFVDRWRGKNGAQPGAIGDISIYDVDFEPIAGATPNPAGHGLTYIDHLTHNVHRGRMQEWAEFYERLFNFREVRYFDIEGKVTGVKSKAMTSPCGKIRIPINEEGSDTAGQIQEYLDAYHGEGIQHIALGTSDIYGAVDGLRGKEVKLLDTIDTYYELVDRRVPDHGESLDELKKRKILIDGARDDLLLQIGTENQIGPIFFEIIQRKGNQGFGEGTFKALFESIELDQIRRGVVQDKA
modifications: N4HPPDm-F372G Amino Acid Sequence
With B2, the Resistance evaluation result is given as “Highly resistant” under setting [1] and “Highly resistant” under setting [2].

B3: BdHPPDm-F372V: Brachypodium distachyon HPPD mutant F372V, SEQ ID NO: 355 (protein)
chain: MPPPATTAAPAAAAVTPEHARPPRRVARVNPRSDRFSALSFHHVELWCADAASAAGRFSFALGAPPAARSDLSTGNSAHASILLRSGSLAFLFTAPYAPSPASDSAASIPSFSASAARQFTADHGGLAVRAVALRVSSASDAFHASVSAGARPSFPPADLGQGFALAEVELYGDVVLRFISHPDENTEIPFLPGFESVSNPGASTYGLTRFDHVVGNVPSLAPVAAYIAGFTGFHEFAEFTAEDVGTADSGLNSVVLANNSERVLLPLNEPVHGTKRRSQIQTYLDHHGGPGVQHIALASDDVLRTLREMRARSAMGGFEFLAPPPPNYYDGVRRRAGDVLSEAQIKECQELGVLVDRDDQGVLLQIVTKPVGDRPTLFLEMIQRIGCMEKDEIGQEQQKGGCGGFGKGNFSELFRSIEEYEKSLEAKQSAVVQES
modifications: BdHPPDm-F372V Amino Acid Sequence
In the case of B3, the Resistance evaluation result is “Highly resistant” under setting [3] and “Poorly resistant” under setting [4].

B4: N2HPPDm-F372G: Sphingobium sp. N2 HPPD mutant F372G, SEQ ID NO: 339 (protein)
chain: MTLFDNPLGLDGFEFVEFSAPAKGMLEPVFAAMGFVMIARHRSKDVQLWRQGGINLIANYEPRSPAAYFAAEHGPSACGMGWRVRNAAKAYELAVERGAEPVDVKTGPMELRLPAIRGIGGSIIYLIDRYEDEDGGLSIYDIDFVYEPGVDRHPEGAGFKIIDHLTHNVYGGRMAHWASFYERVFGFREIRYFDIKGEYTGLTSKAMTAPDGKIRIPLNEEGKAGGGQIEEFLRAYNGEGIQHIAFLCDDLIAAWDKLKALGTPLMTAPPATYYEMLDERLPGHGEPVAELQKRGILLDGSTQQGDPRLLLQIGGQATIGPVFFEFIQRKKDEGFGEGNFTALFESMERDQLRRGTLNAGESA
modifications: N2HPPDm-F372G Amino Acid Sequence
With B4, the Resistance evaluation entry is “Highly resistant” under setting [1] and “Highly resistant” under setting [2].

B5: GsHPPDm-F372G: Gossypium hirsutum HPPD mutant F372G, SEQ ID NO: 299 (protein)
chain: MVQTNQSGSGNDFKLVGFSNFVRSNPKSDRFTVKRFHHIEFWCTDATNVARRFSWGLGMQFVAKSDLSTGNLTHASYLLRSRDLNFLFTAPYSPSIAVAQNLSPQSTASIPSFDHSLCRSFAATHGLGVRAIAIEVDDAETAFTTSVTHGALPFCPPTPLGDVATIAEVKLYGDVVLRYVSYTTTINSDHDFLPGFEKIEDTLSYPLDYGLRRLDHAVGNVPELGPAVSYVKSFTGFHEFAEFTAEDVGTSESGLNSVVLANNEEMVLLPMNEPVFGTKRKSQIQTYLEHNEGAGVQHLALVSEDIFKTLREMRKRSFVGGFEFMPSPPPTYYKKLKQRAGDILSDEQIKECEELGILVDRDDQGTLLQIGTKPVGDRPTIFIEIIQRIGCMVKDEEGKQYQKGGCGGFGKGNFSELFKSIEEYEKSLEAKQSQNP
modifications: GsHPPDm-F372G Amino Acid Sequence
Consider B5, for which the Resistance evaluation entry under setting [1] was “Moderately resistant” and the Resistance evaluation result under setting [2] was “Non-resistant”.

B6: ZmHPPDm-F372G: Zea mays HPPD mutant F372G, SEQ ID NO: 295 (protein)
chain: MPPTPTAAAAGAAVAAASAAEQAAFRLVGHRNFVRFNPRSDRFHTLAFHHVELWCADAASAAGRFSFGLGAPLAARSDLSTGNSAHASLLLRSGSLSFLFTAPYAHGADAATAALPSFSAAAARRFAADHGLAVRAVALRVADAEEAFRTSVAAGARPAFGPVDLGRGFRLAEVELYGDVVLRYVSYPDGAAGEPFLPGFEGVASPGAADYGLSRFDHIVGNVPELAPAAAYFAGFTGFHEFAEFTTEDVGTAESGLNSMVLANNSENVLLPLNEPVHGTKRRSQIQTFLDHHGGPGVQHMALASDDVLRTLREMQARSAMGGFEFMAPPTSDYYDGVRRRAGDVLTEAQIKECQELGVLVDRDDQGVLLQIGPKPVGDRPTLFLEIIQRIGCMERDEKGQEYQKGGCGGFGKGNFSQLFKSIEDYEKSLEAMQAAAAATAQGS
modifications: ZmHPPDm-F372G Amino Acid Sequence
Consider B6, for which the Resistance evaluation result under setting [1] is on record as “Highly resistant” and the Resistance evaluation result under setting [2] is on record as “Moderately resistant”.

B7: HvHPPDm-F372V: Hordeum vulgare HPPD mutant F372V, SEQ ID NO: 357 (protein)
chain: MPPTPTTPAATGAAAAVTPEHARPHRMVRFNPRSDRFHTLSFHHVEFWCADAASAAGRFAFALGAPLAARSDLSTGNSAHASQLLRSGSLAFLFTAPYANGCDAATASLPSFSADAARRFSADHGIAVRSVALRVADAAEAFRASRRRGARPAFAPVDLGRGFAFAEVELYGDVVLRFVSHPDGTDVPFLPGFEGVTNPDAVDYGLTRFDHVVGNVPELAPAAAYIAGFTGFHEFAEFTAEDVGTTESGLNSVVLANNSEGVLLPLNEPVHGTKRRSQIQTFLEHHGGPGVQHIAVASSDVLRTLRKMRARSAMGGFDFLPPPLPKYYEGVRRLAGDVLSEAQIKECQELGVLVDRDDQGVLLQIVTKPVGDRPTLFLEMIQRIGCMEKDERGEEYQKGGCGGFGKGNFSELFKSIEDYEKSLEAKQSAAVQGS
modifications: HvHPPDm-F372V Amino Acid Sequence
Consider B7, for which the Resistance evaluation entry is, setting by setting: under setting [3], “Highly resistant”; under setting [4], “Poorly resistant”.

B8: N1HPPDm-F372G: Sphingobium sp. N1 HPPD mutant F372G, SEQ ID NO: 337 (protein)
chain: MAADSENPLGLHGFAFAEFTSPDPAAMARQFEQLGFVPAARRKDRGLTLYRQGRIAFILNAGEGEQASAFRAAHGPSANGMAFNVADAKAAHRHAIQSGATDADTAQSALPGTYAIEGIGDSLLYLVDSDPFADWDEVPGWREASAERGVGLDLLDHLTHNVRRGQMRVWSEFYATLFGFEEQKFFDIKGQATGLFSQAMIAPDHEIRIPLNESQDDNSQIEEFIREYNGEGIQHLALTTPDIYSTVEKLRANGVRLQDTIDTYYDLVDERVPGHGEDLARLRKNRILIDGDVHDEGLLLQIGTETMFGPIFFEIIQRKGNEGFGNGNFQVLYESIELDQIRRGVVTVDA
modifications: N1HPPDm-F372G Amino Acid Sequence
On to B8, for which the Resistance evaluation entry is “Highly resistant” under setting [1] and “Highly resistant” under setting [2].

B9: CyHPPDm-F372G: Cyanobacteria HPPD mutant F372G, SEQ ID NO: 335 (protein)
chain: MEFDYLHLYVDDYQSAHRCYQRQWGFTCVNKIITDQGITGIYQQGQILLLISASESSLSRYADYLQKHPPGVGEVAWQVANWQKIQHQLSELQIETTPVIHPLTKAEGLTFLLWGDVHHSIYPVRSELNQNKTLHGVGLTTIDHVVLNIAADQFTQASQWYQQVFGWSVQQSFTVNTPHSGLYSEALASANGKVQFNLNCPTNNSSQIQTFLANNHGAGIQHVAFSTTSITRTVAHLRERGVNFLKIPTGYYQQQRNSSYFNYASLDWDTLQCLEILLDDQDNTGERLLLQIGSQPCYGVGTLFWEIIERRHRAKGFGQGNFQALYEAVETLEKQLEVP
modifications: CyHPPDm-F372G Amino Acid Sequence
In the case of B9, the Resistance evaluation entry is, setting by setting: under setting [1], “Moderately resistant”; under setting [2], “Non-resistant”.

B10: TaHPPDm-F372G: Triticum aestivum HPPD mutant F372G, SEQ ID NO: 301 (protein)
chain: MPPTPTTPAATGAGAAAAVTPEHARPRRMVRFNPRSDRFHTLSFHHVEFWCADAASAAGRFAFALGAPLAARSDLSTGNSVHASQLLRSGNLAFLFTAPYANGCDAATASLPSFSADAARRFSADHGLAVRSIALRVADAAEAFRASVDGGARPAFSPVDLGRGFGFAEVELYGDVVLRFVSHPDGTDVPFLPGFEGVSNPGAVDYGLTRFDHVVGNVPELASAAAYVAGFTGFHEFAEFTTEDVGTAESGLNSMVLANNSEGVLLPLNEPVHGTKRRSQIQTFLEHHGGPGVQHIAVASSDVLRTLREMRARSAMGGFDFLPPPLPKYYEGVRRIAGDVLSEAQIKECQELGVLVDRDDQGVLLQIGTKPVGDRPTLFLEMIQRIGCMEKDERGEEYQKGGCGGFGKGNFSELFKSIEDYEKSLEAKQSAAVQGS
modifications: TaHPPDm-F372G Amino Acid Sequence
In the case of B10, the Resistance evaluation result runs as follows: under setting [1], “Highly resistant”; under setting [2], “Moderately resistant”.
